Patent US20130337438A1 (JAPAN HEALTH SCIENCES FOUNDATION, published 2013)

Legend:
[1] = target: T1, P56/75 (amino acids 56-75 of HPV16 L2 protein) (human papillomavirus type 16, conjugated with keyhole limpet hemocyanin (KLH) via cysteine); assay: affinity purification on KLH-P56/75 sepharose
T1 construct: Synthetic peptide; It was conjugated with KLH via an added cysteine (KLH-P56/75); also called KLH-P56/75; L2 peptide (56-75)
T1 peptide: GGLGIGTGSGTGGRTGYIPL

HPV16 L1/L2-capsid = target: T2, HPV16 L1/L2-capsid (human papillomavirus type 16, UniProt P03107 1-473; P03101 1-505); assay: hybridoma screening ELISA on HPV16 L1/L2-capsid
T2 construct: Capsid of co-expressed L1 and L2; It was made in 293FT cells (Test Method 2) or in Sf9 insect cells with baculovirus (Test Method 3); The pseudovirus of Test Method 1 is the same capsid carrying a SEAP plasmid; also called L1/L2-capsid of type 16; HPV16 pseudovirus (PsV)
T2 sequence 1: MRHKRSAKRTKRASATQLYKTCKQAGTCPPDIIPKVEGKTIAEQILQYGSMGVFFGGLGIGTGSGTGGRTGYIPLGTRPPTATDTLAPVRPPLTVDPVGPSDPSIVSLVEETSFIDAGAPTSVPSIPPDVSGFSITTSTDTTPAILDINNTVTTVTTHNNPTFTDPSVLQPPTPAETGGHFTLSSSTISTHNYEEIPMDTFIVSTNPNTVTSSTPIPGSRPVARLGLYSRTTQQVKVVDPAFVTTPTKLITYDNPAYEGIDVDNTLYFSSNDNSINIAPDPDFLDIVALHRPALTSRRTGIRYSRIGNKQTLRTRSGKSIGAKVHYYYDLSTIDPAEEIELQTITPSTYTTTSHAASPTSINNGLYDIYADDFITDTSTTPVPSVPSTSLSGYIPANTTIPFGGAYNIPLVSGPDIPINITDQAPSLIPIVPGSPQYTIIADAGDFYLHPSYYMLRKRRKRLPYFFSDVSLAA
T2 sequence 2: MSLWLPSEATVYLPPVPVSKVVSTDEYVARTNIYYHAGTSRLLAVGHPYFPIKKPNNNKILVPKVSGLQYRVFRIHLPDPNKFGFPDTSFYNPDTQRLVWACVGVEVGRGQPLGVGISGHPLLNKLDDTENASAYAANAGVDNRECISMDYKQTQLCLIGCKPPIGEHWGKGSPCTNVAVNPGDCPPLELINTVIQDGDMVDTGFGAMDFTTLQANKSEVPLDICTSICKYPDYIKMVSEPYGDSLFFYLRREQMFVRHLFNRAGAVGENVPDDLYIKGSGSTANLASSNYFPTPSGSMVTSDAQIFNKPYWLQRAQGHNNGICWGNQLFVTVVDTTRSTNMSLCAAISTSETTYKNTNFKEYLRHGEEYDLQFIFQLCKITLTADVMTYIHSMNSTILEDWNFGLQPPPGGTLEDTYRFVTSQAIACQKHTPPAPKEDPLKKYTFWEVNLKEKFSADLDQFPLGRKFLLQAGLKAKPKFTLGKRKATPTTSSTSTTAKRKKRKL

HPV31 L1/L2-capsid = target: T3, HPV31 L1/L2-capsid (human papillomavirus type 31, UniProt P17389 1-466; P17388 1-504); assay: ELISA on immobilized L1/L2-capsid, purified antibody 250 ng/well
T3 construct: Capsid of co-expressed L1 and L2 from 293FT cells; The pseudovirus is the same capsid with a reporter plasmid; also called L1/L2-capsid of type 31; HPV31 pseudovirus
T3 sequence 1: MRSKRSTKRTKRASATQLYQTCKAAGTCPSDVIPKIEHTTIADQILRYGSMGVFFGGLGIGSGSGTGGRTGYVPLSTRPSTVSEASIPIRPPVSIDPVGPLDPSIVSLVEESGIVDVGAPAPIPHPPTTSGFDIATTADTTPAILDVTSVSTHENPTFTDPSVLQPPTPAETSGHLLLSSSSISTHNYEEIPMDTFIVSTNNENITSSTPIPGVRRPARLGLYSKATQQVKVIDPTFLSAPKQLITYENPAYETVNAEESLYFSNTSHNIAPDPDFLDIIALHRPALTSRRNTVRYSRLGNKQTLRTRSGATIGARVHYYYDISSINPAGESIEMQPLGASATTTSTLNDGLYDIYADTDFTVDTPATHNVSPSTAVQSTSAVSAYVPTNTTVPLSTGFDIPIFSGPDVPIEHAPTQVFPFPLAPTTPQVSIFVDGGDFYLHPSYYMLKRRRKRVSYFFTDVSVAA
T3 sequence 2: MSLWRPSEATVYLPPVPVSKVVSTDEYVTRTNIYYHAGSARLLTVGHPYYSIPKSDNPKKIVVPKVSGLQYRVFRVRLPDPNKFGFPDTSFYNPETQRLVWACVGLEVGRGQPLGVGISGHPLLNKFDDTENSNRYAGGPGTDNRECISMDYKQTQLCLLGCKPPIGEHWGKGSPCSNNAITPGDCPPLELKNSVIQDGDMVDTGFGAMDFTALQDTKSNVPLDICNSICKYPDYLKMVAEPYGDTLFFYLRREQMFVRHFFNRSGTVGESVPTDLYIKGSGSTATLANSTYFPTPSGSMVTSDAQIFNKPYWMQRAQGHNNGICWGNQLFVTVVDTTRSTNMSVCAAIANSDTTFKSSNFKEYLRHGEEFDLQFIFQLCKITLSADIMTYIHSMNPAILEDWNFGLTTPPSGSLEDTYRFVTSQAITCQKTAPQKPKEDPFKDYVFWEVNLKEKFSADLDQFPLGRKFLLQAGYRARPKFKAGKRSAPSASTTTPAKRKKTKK

Measured: binding result

B1: monoclonal antibody 24B (antibody, V domains shown)
VH: EVQLQQSGTVLARPGASVKMSCKASVYSFPSNWMHWVKQRPGQGLEWIGAIYPGTGATRYNQKFKDKAKLTAVTSADTAYMELSSLTDEDSAVYYCTGYSLYWGQGTILTVSS
VL: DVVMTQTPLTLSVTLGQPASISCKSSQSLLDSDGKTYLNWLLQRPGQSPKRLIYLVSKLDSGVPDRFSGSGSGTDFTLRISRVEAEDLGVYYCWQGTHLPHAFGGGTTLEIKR
notes: Used as mouse ascites or as antibody purified from ascites; also called Mouse-Mouse hybridoma 24B (FERM BP-11305)
binds: [1] | HPV16 L1/L2-capsid | HPV31 L1/L2-capsid

B2: monoclonal antibody 13B (antibody, V domains shown)
VH: DVQLQESGPGLVKPSQSLSLSCTVTGYSITSDSAWNWIRQFPGNKLEWMGYITFSGSTNYNPSLKSRLSITRDTSKNQFFLQLNSVTTEDTATYYCTGPFLDYWGQGTTLTVSS
VL: DVVMTQTPLSLPVSLGDQATISCRSSLSLVLSNRITYLQWYLQKPGQSPKLLIYKVSNRFSGVPDRFSGSGSGTDFTLKISRVEAEDLGVYFCSQSSHFPWTFGGGTKLEIKR
notes: Used as mouse ascites or as antibody purified from ascites; also called Mouse-Mouse hybridoma 13B (FERM BP-11304)
binds: [1] | HPV16 L1/L2-capsid | HPV31 L1/L2-capsid
